Where two headings read alike, the source gives them in different places.
Key:
Assay in all cases: SPR
[1] = target: T1, recombinant SARS-CoV N protein (SARS coronavirus (SARS-CoV), UniProt P59595 1-422)
[2] = target: T1, recombinant SARS-CoV N protein; remark: listed apart in the source
[3] = target: T1, recombinant SARS-CoV N protein; remark: listed apart in the source
[4] = target: His-tagged N11 (aa283-422 of SARS-CoV N protein) (SARS coronavirus (SARS-CoV), UniProt P59595 283-422)
His-tagged N11 (aa283-422 of SARS-CoV N protein), sequence (P59595 283-422): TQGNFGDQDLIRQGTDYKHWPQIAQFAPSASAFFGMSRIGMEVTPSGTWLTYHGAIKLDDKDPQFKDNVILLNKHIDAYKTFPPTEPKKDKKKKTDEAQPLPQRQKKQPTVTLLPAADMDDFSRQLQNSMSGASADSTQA

T1 sequence (P59595 whole entry): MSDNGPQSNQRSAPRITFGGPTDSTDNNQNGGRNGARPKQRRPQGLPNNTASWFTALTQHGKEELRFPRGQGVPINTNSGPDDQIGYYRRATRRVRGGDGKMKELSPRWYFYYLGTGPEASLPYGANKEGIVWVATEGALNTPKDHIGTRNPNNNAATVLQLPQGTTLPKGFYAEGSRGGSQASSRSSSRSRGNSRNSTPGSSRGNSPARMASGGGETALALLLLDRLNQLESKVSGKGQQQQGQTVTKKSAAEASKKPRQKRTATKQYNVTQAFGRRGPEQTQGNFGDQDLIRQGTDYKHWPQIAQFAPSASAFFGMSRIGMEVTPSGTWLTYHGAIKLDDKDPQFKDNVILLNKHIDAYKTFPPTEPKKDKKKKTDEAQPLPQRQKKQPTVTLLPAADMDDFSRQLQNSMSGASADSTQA

Binder | Kd [1] [µM] | Kd [2] [µM] | Kd [3] [µM] | koff [3] [s⁻¹] | kon [3] [M⁻¹ s⁻¹] | Kd [4] [µM]
His-tagged SARS-CoV ME (endodomain of M protein, aa102-221) (domain or fragment) FARTRSMWSFNPETNILLNVPLRGTIVTRPLMESELVIGAVIIRGHLRMAGHSLGRCDIKDLPKEITVATSRTLSYYKLGASQRVGTDSGFAAYNRYRIGNYKLNTDHAGSNDNIALLVQ | 49.2 | 21.2 | 0.55 ± 0.04 | 0.00223 | 4180 | 0.61 ± 0.06
RYRIGNYKLNTDHAGSNDNIALLVQ [MCT peptide (residues 197-221 of SARS-CoV M protein)] |  |  | 75 ± 5 | 0.0394 ± 0.002 | 509 ± 42 | 
